IC50 data for 14 molecules are collected here from patent publication US20200207853A1 (PHANES THERAPEUTICS, published 2020).

This test addresses T1, Recombinant human CD47(ECD)-HIS (human, UniProt Q08722 19-139, limits assumed).
T1 construct: also called huCD47-HIS; not shown: HIS tag
Put plainly: competition ELISA: blocking of SIRPα binding to CD47(ECD)-HIS. On the technique in general: An ELISA detects its analyte on a solid surface through an enzyme-linked reagent.

T1 sequence (Q08722 19-139 limits assumed): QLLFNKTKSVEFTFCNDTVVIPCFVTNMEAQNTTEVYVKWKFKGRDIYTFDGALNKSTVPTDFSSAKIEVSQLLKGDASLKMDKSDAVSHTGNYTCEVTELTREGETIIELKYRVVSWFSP

B1: H8L10 (antibody, V domains shown)
VH: QVQLVQSGAEVKKPGASVKVSCKASGYTFTSYWMHWVRQAPGQGLEWIGNIDPSDSETHYAQKFQGRVTLTVDKSTSTVYMELSSLRSEDTAVYYCAGTDLAYWGQGTLVTVSS
VL: EIVMTQSPGTLSLSPGERATLSCHASQNINVWLSWYQQKPGQAPRLLIYKASNLHTGIPDRFSGSGSGTDFTLTISRLEPEDFAVYYCQQGQSYPFTFGQGTKVEIK
notes: Humanized from mouse 17C6A; also called humanized anti-CD47 mAb H8L10
For orientation: IC50 means the midpoint of a concentration-inhibition curve. For B1, the IC50 worked out at 1.05 nM.

B2: H2L3 (antibody, V domains shown)
VH: QVQLVQSGAEVKKPGASVKLSCKASGYTFTSYWMHWVRQAPGQGLEWMGNIDPSDSETHYNQKFKDRVTLTVDTSTSTAYMELSSLRSEDTAVYYCSRWGYYGKSAMDYWGQGTLVTVSS
VL: AVQLTQSPSFLSASVGQRITINCRASKSISKYLAWYQEKPGKANKLLIYSGSTLQSGIPSRFSGSGSGTDFTLTISSLQPEDFAMYYCQQHNEYPWTFGGGTKVEIK
notes: also called humanized anti-CD47 mAb H2L3
As for B2, the IC50 was 9.56 nM.

B3: H1L3 (antibody, V domains shown)
VH: QVQLVQSGAEVKKPGASVKVSCKASGYTFTSYWMHWVRQAPGQGLEWMGNIDPSDSETHYNQKFKDRVTLTVDTSTSTVYMELSSLRSEDTAVYYCSRWGYYGKSAMDYWGQGTLVTVSS
VL: AVQLTQSPSFLSASVGQRITINCRASKSISKYLAWYQEKPGKANKLLIYSGSTLQSGIPSRFSGSGSGTDFTLTISSLQPEDFAMYYCQQHNEYPWTFGGGTKVEIK
notes: also called humanized anti-CD47 mAb H1L3
In the case of B3, the IC50 came to 7.43 nM.

B4: H2L4 (antibody, V domains shown)
VH: QVQLVQSGAEVKKPGASVKLSCKASGYTFTSYWMHWVRQAPGQGLEWMGNIDPSDSETHYNQKFKDRVTLTVDTSTSTAYMELSSLRSEDTAVYYCSRWGYYGKSAMDYWGQGTLVTVSS
VL: AVQITQSPSFLSASVGQTITINCRASKSISKYLAWYQEKPGKANKLLIYSGSTLQSGIPSRFSGSGSGTDFTLTISSLEPEDFAMYYCQQHNEYPWTFGGGTKVEIK
notes: also called humanized anti-CD47 mAb H2L4
Turning to B4, the IC50 is 6.52 nM.

B5: H3L2 (antibody, V domains shown)
VH: QVQLVQSGAEVKKPGASVKLSCKASGYTFTSYWMHWVRQAPGQGLEWIGNIDPSDSETHYNQKFKDRATLTVDTSTSTAYMELSSLRSEDTAVYYCSRWGYYGKSAMDYWGQGTLVTVSS
VL: AVQLTQSPSFLSASVGQRITINCRASKSISKYLAWYQQKPGKANKLLIYSGSTLQSGVPSRFSGSGSGTEFTLTISSLQPEDFAMYYCQQHNEYPWTFGGGTKVEIK
notes: also called humanized anti-CD47 mAb H3L2
In the case of B5, the IC50 amounted to 7.88 nM.

B6: H3L4 (antibody, V domains shown)
VH: QVQLVQSGAEVKKPGASVKLSCKASGYTFTSYWMHWVRQAPGQGLEWIGNIDPSDSETHYNQKFKDRATLTVDTSTSTAYMELSSLRSEDTAVYYCSRWGYYGKSAMDYWGQGTLVTVSS
VL: AVQITQSPSFLSASVGQTITINCRASKSISKYLAWYQEKPGKANKLLIYSGSTLQSGIPSRFSGSGSGTDFTLTISSLEPEDFAMYYCQQHNEYPWTFGGGTKVEIK
notes: also called humanized anti-CD47 mAb H3L4
B6: the IC50 amounted to 5.35 nM.

B7: H1L2 (antibody, V domains shown)
VH: QVQLVQSGAEVKKPGASVKVSCKASGYTFTSYWMHWVRQAPGQGLEWMGNIDPSDSETHYNQKFKDRVTLTVDTSTSTVYMELSSLRSEDTAVYYCSRWGYYGKSAMDYWGQGTLVTVSS
VL: AVQLTQSPSFLSASVGQRITINCRASKSISKYLAWYQQKPGKANKLLIYSGSTLQSGVPSRFSGSGSGTEFTLTISSLQPEDFAMYYCQQHNEYPWTFGGGTKVEIK
notes: Humanized from mouse 13B18A; also called humanized anti-CD47 mAb H1L2
As for B7, the IC50 came to 6.8 nM.

B8: H1L4 (antibody, V domains shown)
VH: QVQLVQSGAEVKKPGASVKVSCKASGYTFTSYWMHWVRQAPGQGLEWMGNIDPSDSETHYNQKFKDRVTLTVDTSTSTVYMELSSLRSEDTAVYYCSRWGYYGKSAMDYWGQGTLVTVSS
VL: AVQITQSPSFLSASVGQTITINCRASKSISKYLAWYQEKPGKANKLLIYSGSTLQSGIPSRFSGSGSGTDFTLTISSLEPEDFAMYYCQQHNEYPWTFGGGTKVEIK
notes: also called humanized anti-CD47 mAb H1L4
On to B8, for which the IC50 turned out to be 8.09 nM.

B9: H2L1 (antibody, V domains shown)
VH: QVQLVQSGAEVKKPGASVKLSCKASGYTFTSYWMHWVRQAPGQGLEWMGNIDPSDSETHYNQKFKDRVTLTVDTSTSTAYMELSSLRSEDTAVYYCSRWGYYGKSAMDYWGQGTLVTVSS
VL: AVQLTQSPSFLSASVGDRVTITCRASKSISKYLAWYQQKPGKANKLLIYSGSTLQSGVPSRFSGSGSGTEFTLTISSLQPEDFAMYYCQQHNEYPWTFGGGTKVEIK
notes: also called humanized anti-CD47 mAb H2L1
Take B9: the IC50 amounted to 4.73 nM.

B10: H3L9 (antibody, V domains shown)
VH: QVQLVQSGAEVKKPGASVKLSCKASGYTFTSYWMHWVRQAPGQGLEWIGNIDPSDSETHYNQKFKDRATLTVDTSTSTAYMELSSLRSEDTAVYYCSRWGYYGKSAMDYWGQGTLVTVSS
VL: DVQLTQSPSFLSASVGDRVTITCRASKSISKYLAWYQQKPGKANKLLIYSGSTLQSGVPSRFSGSGSGTEFTLTISSLQPEDFAMYYCQQHNEYPWTFGGGTKVEIK
notes: also called humanized anti-CD47 mAb H3L9
Turning to B10, the IC50 is 9.6 nM.

B11: H6L5 (antibody, V domains shown)
VH: QIQLVQSGAEVKKPGASVKVSCKASGYTFTAYYINWVRQAPGQRLEWIGWIYPGSGNTKYNEKFKGRVTLTVDTSASTAYIELSSLRSEDTAVYFCARRGPWYFDVWGQGTTVTVSS
VL: EIVMTQSPATLSLSPGERATLSCRASENVGTYVSWYQQKPGQAPNLLIYGASNRYTGIPARFSGSGSGTDFTLTISSLQPEDFAVYHCGQTYSYPLTFGQGTKLEIK
notes: also called humanized anti-CD47 mAb H6L5
Take B11: the IC50 was determined as 9.67 nM.

B12: H5L5 (antibody, V domains shown)
VH: QIQLVQSGAEVKKPGASVKVSCKASGYTFTAYYINWVRQAPGQRLEWIGWIYPGSGNTKYNEKFKGRVTLTVDTSASTAYIELSSLRSEDTAVYYCARRGPWYFDVWGQGTTVTVSS
VL: EIVMTQSPATLSLSPGERATLSCRASENVGTYVSWYQQKPGQAPNLLIYGASNRYTGIPARFSGSGSGTDFTLTISSLQPEDFAVYHCGQTYSYPLTFGQGTKLEIK
notes: also called humanized anti-CD47 mAb H5L5
In the case of B12, the IC50 came out at 15.1 nM.

B13: H6L8 (antibody, V domains shown)
VH: QIQLVQSGAEVKKPGASVKVSCKASGYTFTAYYINWVRQAPGQRLEWIGWIYPGSGNTKYNEKFKGRVTLTVDTSASTAYIELSSLRSEDTAVYFCARRGPWYFDVWGQGTTVTVSS
VL: NIVMTQSPATLSLSPGERATLSCKASENVGTYVSWYQQKPGQSPNLLIYGASNRYTGVPDRFSGSGSATDFTLTISSLQPEDFADYHCGQTYSYPLTFGQGTKLEIK
notes: also called humanized anti-CD47 mAb H6L8
For B13, the IC50 stood at 13.2 nM.

B14: H6L7 (antibody, V domains shown)
VH: QIQLVQSGAEVKKPGASVKVSCKASGYTFTAYYINWVRQAPGQRLEWIGWIYPGSGNTKYNEKFKGRVTLTVDTSASTAYIELSSLRSEDTAVYFCARRGPWYFDVWGQGTTVTVSS
VL: EIVMTQSPATLSLSPGERATLSCKASENVGTYVSWYQQKPGQSPNLLIYGASNRYTGIPDRFSGSGSGTDFTLTISSLQPEDFAVYHCGQTYSYPLTFGQGTKLEIK
notes: also called humanized anti-CD47 mAb H6L7
As for B14, the IC50 is 39.2 nM.
